This test has as its target HCMV capsid (icosahedral T=16 capsid shell of MCP, mCP, mC-BP and SCP) (human cytomegalovirus strain AD169). Briefly: co-sedimentation.

The substance “UL32-encoded basic phosphorylated protein pp150 (natural protein)” yielded a % decrease in chemically treated particles of 5%.

Source of the values: paper PMC3684277.
